# In patent publication US20140212458A1:
# Where “and” joins values, the source holds several entries; their conditions need not be identical. Equal values may be shown once.
# Columns and labels:
# [1] = target: BG505 SOSIP.664-D7324 gp140 trimer (HIV-1 BG505 (clade A)); experiment: D7324-capture ELISA, average of 2-6 titrations
# [2] = target: BG505 gp120-D7324 monomer (HIV-1 BG505 (clade A)); experiment: D7324-capture ELISA (panel A)
# [3] = target: BG505 SOSIP.664-D7324 gp140 trimer (HIV-1 BG505 (clade A)); experiment: D7324-capture ELISA (panel A)
# [4] = target: BG505 SOSIP.664 gp140 trimer (HIV-1 BG505 (clade A)); experiment: ITC, two-site model
# [5] = target: BG505 SOSIP.664 gp140 trimer (HIV-1 BG505 (clade A)); experiment: ITC, antibody titrated into trimer
# [6] = target: BG505 SOSIP.664-D7324 gp140 trimer (HIV-1 BG505 (clade A)); experiment: D7324-capture ELISA (panel B)
# [7] = target: BG505 SOSIP.664 gp140 trimer (HIV-1 BG505 (clade A)); experiment: negative stain EM, 2D class averages; Fab 240 nM, trimer 14 nM
# [8] = target: BG505 SOSIP.664 gp140 trimer (HIV-1 BG505 (clade A)); experiment: negative stain EM
# [9] = target: BG505 SOSIP.664 gp140 trimer (HIV-1 BG505 (clade A)); experiment: negative stain EM, 2D class averages; Fab 600 nM, trimer 40 nM
# [10] = target: BG505 gp120-D7324 monomer in the presence of sCD4 (HIV-1 BG505 (clade A)); experiment: D7324-capture ELISA with sCD4 (panel B)
# [11] = target: BG505 gp41ECTO-His (HIV-1 BG505 (clade A)); experiment: Ni-NTA-capture ELISA (panel C)
# [12] = target: BG505 SOSIP.664 gp140 trimer (HIV-1 BG505 (clade A)); experiment: negative stain EM, 2D class averages; Fab 860 nM, trimer 48 nM
# [13] = target: BG505 SOSIP.664-D7324 gp140 trimer (HIV-1 BG505 (clade A)); experiment: D7324-capture ELISA (panel D)
# [14] = target: recombinant HIV-1 envelope glycoprotein gp120 BG505 clade A (HIV-1 BG505 (clade A)); experiment: ELISA on BG505 gp120
# [15] = target: BG505 SOSIP.664 gp140 trimer (HIV-1 BG505 (clade A)); experiment: ITC
# [16] = target: BG505 gp120 monomer (HIV-1 BG505 (clade A)); experiment: ITC
# [17] = target: BG505 SOSIP.664 gp140 trimer (HIV-1 BG505 (clade A)); experiment: ITC, Fab titrated into trimer; footnote f: data previously described elsewhere (Julien 2013, the applicants' own PG9:trimer study, also an example of this filing)
# [18] = target: BG505 SOSIP.664 gp140 trimer (HIV-1 BG505 (clade A)); experiment: ITC; remark: listed apart in the source
# [19] = target: BG505 SOSIP.664 gp140 trimer (HIV-1 BG505 (clade A)); experiment: SDS-PAGE of SEC fractions, ImageJ
# [20] = target: BG505 SOSIP.664 gp140 trimer (HIV-1 BG505 (clade A)); experiment: ITC, Fab titrated into Env, 25 C
# [21] = target: BG505 gp120 monomer (HIV-1 BG505 (clade A)); experiment: ITC, Fab titrated into Env, 25 C
# [22] = target: BG505 SOSIP.664 gp140 trimer (HIV-1 BG505 (clade A)); experiment: negative stain EM (not shown)
# [23] = target: BG505 SOSIP.664-His gp140 trimer (HIV-1 BG505 (clade A)); experiment: SPR, trimer on NTA chip, IgG 1,000 nM
# [24] = target: JR-FL gp120 core with mini V3 (HIV-1 JR-FL); experiment: ITC
# [25] = target: BG505 SOSIP.664-His gp140 trimer (HIV-1 BG505 (clade A)); experiment: Ni-NTA-capture ELISA (panel C)
# [26] = target: BG505 SOSIP.664 gp140 trimer (HIV-1 BG505 (clade A)); experiment: negative stain EM, 2D class averages; Fab 480 nM, trimer 44 nM
substance,measurement,setting,value
1NC9 (antibody),EC50,[1],0.735 µg/mL
2G12 (antibody),EC50 (read off the curve),[2],0.01 µg/mL
same,EC50 (read off the curve),[3],0.02 µg/mL
same,"Kd2 (second, low affinity binding event)",[4],12.3 µM
same,-TΔS,[5],28.4 kcal/mol
same,Kd,[5],16 nM and 2.4 µg/mL
same,N (stoichiometry of binding),[5],2.4
same,ΔG,[5],-10.6 kcal/mol
same,ΔH,[5],-39 kcal/mol
same,EC50,[1],0.027 µg/mL
3BC176 (antibody),EC50,[1],5.65 µg/mL
3BC315 (antibody),EC50,[1],0.962 µg/mL
3BNC60 (antibody),EC50 (read off the curve),[6],0.03 µg/mL
same,EC50,[1],0.095 µg/mL
3BNC117 (antibody),EC50 (read off the curve),[6],0.1 µg/mL
same,EC50,[1],0.102 µg/mL
7B2 (antibody),EC50,[1],> 10 µg/mL
8ANC195 (antibody),EC50,[1],2.06 µg/mL
12A12 (antibody),EC50,[1],0.08 µg/mL
14e Fab,% 1 Fab bound,[7],17%
same,% 2 Fabs bound,[7],2%
same,% 3 Fabs bound,[7],0%
same,% trimer alone,[7],81%
same,"particles, 1 Fab bound",[7],4440 particles
same,"particles, 2 Fabs bound",[7],610 particles
same,"particles, 3 Fabs bound",[7],0 particles
same,"particles, trimer alone",[7],21900 particles
19b Fab,"% of trimers occupied by one, two or three Fabs",[8],39%
same,% 1 Fab bound,[9],30%
same,% 2 Fabs bound,[9],8%
same,% 3 Fabs bound,[9],1%
same,% trimer alone,[9],61%
same,"particles, 1 Fab bound",[9],12500 particles
same,"particles, 2 Fabs bound",[9],3050 particles
same,"particles, 3 Fabs bound",[9],211 particles
same,"particles, trimer alone",[9],25100 particles
45-46 (antibody),EC50,[1],0.127 µg/mL
A32 (antibody),EC50 (read off the curve),[10],0.04 µg/mL
same,EC50,[1],> 10 µg/mL
CD4-IgG2 (Fc fusion),EC50,[1],0.155 µg/mL
CH01 (antibody),EC50,[1],2.78 µg/mL
CH31 (antibody),EC50,[1],0.347 µg/mL
CH103 (antibody),EC50,[1],0.792 µg/mL
CH106 (antibody),EC50,[1],2.57 µg/mL
F91 (antibody),EC50,[1],> 10 µg/mL
F105 (antibody),EC50,[1],> 10 µg/mL
F240 (antibody),EC50 (read off the curve),[11],0.01 µg/mL
same,EC50,[1],> 10 µg/mL
F240 Fab,% 1 Fab bound,[12],2%
same,% 2 Fabs bound,[12],0%
same,% 3 Fabs bound,[12],0%
same,% trimer alone,[12],98%
same,"particles, 1 Fab bound",[12],154 particles
same,"particles, 2 Fabs bound",[12],0 particles
same,"particles, 3 Fabs bound",[12],0 particles
same,"particles, trimer alone",[12],6260 particles
HJ16 (antibody),EC50,[1],4.38 µg/mL
PG9 (antibody),EC50 (read off the curve),[13],0.4 µg/mL
same,EC50 (read off the curve),[14],0.04 µg/mL
same,EC50,[1],0.343 µg/mL
PG9 Fab,Kd,[15],20 to 30 nM
same,Kd,[16],20 to 30 nM
same,-TΔS,[17],7.8 kcal/mol
same,Kd,[17],11 nM and 0.55 µg/mL
same,N (stoichiometry of binding),[17],0.8
same,ΔG,[17],-10.9 kcal/mol
same,ΔH,[17],-18.7 kcal/mol
same,Kd,[18],30 nM
same,gp140 protomers per PG9 Fab,[19],3
same,ΔG,[20],-10.1 kcal/mol
same,ΔH,[20],-20.6 kcal/mol
same,-TΔS,[21],17.2 kcal/mol
same,Kd,[21],31 nM
same,N (stoichiometry of binding),[21],0.4
same,ΔG,[21],-10.2 kcal/mol
same,ΔH,[21],-27.4 kcal/mol
PG16 (antibody),EC50 (read off the curve),[13],0.1 µg/mL
same,EC50 (read off the curve),[14],0.2 µg/mL
same,EC50,[1],0.199 µg/mL
PGT121 (antibody),EC50 (read off the curve),[6],0.09 µg/mL
same,EC50,[1],0.095 µg/mL
PGT121 Fab,-TΔS,[5],20.6 kcal/mol
same,Kd,[5],151 nM and 7.55 µg/mL
same,N (stoichiometry of binding),[5],2.4
same,ΔG,[5],-9.3 kcal/mol
same,ΔH,[5],-29.9 kcal/mol
PGT122 (antibody),EC50,[1],0.159 µg/mL
PGT122 Fab,% of images with no Fabs bound,[22],< 3%
same,% of images with three Fabs bound,[22],> 50%
PGT123 (antibody),EC50,[1],0.127 µg/mL
PGT125 (antibody),EC50 (read off the curve),[6],0.04 µg/mL
same,EC50,[1],0.047 µg/mL
PGT126 (antibody),EC50 (read off the curve),[6],0.03 µg/mL
same,EC50,[1],0.026 µg/mL
PGT127 (antibody),EC50,[1],0.066 µg/mL
PGT127 Fab,N (stoichiometry of binding),[15],< 3
same,Kd,[18],70 nM
PGT128 (antibody),EC50 (read off the curve),[2],0.04 µg/mL
same,EC50 (read off the curve),[3],0.04 µg/mL
same,EC50 (read off the curve),[6],0.04 µg/mL
same,plateau response (RU),[23],750 RU
same,EC50,[1],0.058 µg/mL
PGT128 Fab,"Kd2 (second, low affinity binding event)",[4],20 µM
same,-TΔS,[5],11.6 kcal/mol
same,Kd,[5],5.7 nM and 0.285 µg/mL
same,N (stoichiometry of binding),[5],2.3
same,ΔG,[5],-11.2 kcal/mol
same,ΔH,[5],-22.8 kcal/mol
PGT130 (antibody),EC50,[1],0.524 µg/mL
PGT135 (antibody),EC50,[1],0.521 µg/mL
PGT135 Fab,% of images with no Fabs bound,[22],< 3%
same,% of images with three Fabs bound,[22],> 50%
same,Kd,[24],82 nM
PGT136 (antibody),EC50,[1],0.434 µg/mL
PGT145 (antibody),EC50 (read off the curve),[13],0.06 µg/mL
same,EC50,[1],0.114 µg/mL
PGV04 (antibody),EC50,[1],0.227 µg/mL
PGV04 Fab,% of images with no Fabs bound,[22],< 3%
same,% of images with three Fabs bound,[22],> 50%
VRC01 (antibody),EC50 (read off the curve),[25],0.03 µg/mL
same,EC50,[1],0.163 µg/mL
VRC03 (antibody),EC50 (read off the curve),[6],0.6 µg/mL
same,EC50,[1],0.647 µg/mL
VRC06 (antibody),EC50,[1],1.1 µg/mL
VRC06b (antibody),EC50 (read off the curve),[6],0.4 µg/mL
same,EC50,[1],0.345 µg/mL
X5 (antibody),EC50,[1],> 10 µg/mL
b6 (antibody),EC50 (read off the curve),[2],0.09 µg/mL
same,plateau response (RU),[23],30 RU
same,EC50,[1],0.871 µg/mL
b6 Fab,% 1 Fab bound,[26],6%
same,% 2 Fabs bound,[26],0%
same,% 3 Fabs bound,[26],0%
same,% trimer alone,[26],94%
same,"particles, 1 Fab bound",[26],354 particles
same,"particles, 2 Fabs bound",[26],0 particles
same,"particles, 3 Fabs bound",[26],0 particles
same,"particles, trimer alone",[26],5610 particles
b12 (antibody),EC50 (read off the curve),[14],0.03 µg/mL
same,EC50,[1],> 10 µg/mL
